{"source": "paper PMC3545062", "about": "(Structure (London, England : 1993), 2012)", "molecules": {"B1": {"name": "C-terminal domain of Stn1, residues 311-494 (domain or fragment, S. cerevisiae, UniProt P38960 311-494, looked up)", "chain": "NRTSAKSNLMLILLGLQMKEISNSDLYKLKEVRSVVTSLASFLFQQQNVGVMKSFDSLEKEAFRDLVNRLVSQGLIGLKDKTSETFDLLPLKNLFEYAEKRISVLMKLQCYTGTVQLSHVQEKLHLPYITTNGIVDVFKECLKRTKKQYPEVLKNWWIDLDPKNGMEDQNSGILLHLEYAAAYS"}, "B2": {"name": "S. cerevisiae Cdc13 OB2 domain, wild type (domain or fragment, UniProt P32797 344-495, looked up)", "chain": "KAISYEQLSLASVGSVERLEGKIVGMNPPQFASINEFKYCTLKLYFTQLLPNVPDKVLVPGVNCIEIVIPTRERICELFGVLNCQSDKISDILLLEKPDRISVEVERILWDNDKTASPGMAVWSLKNISTDTQAQAQVQVPAQSSASIDPSR"}, "B3": {"name": "Cdc13 OB2 domain C383S (domain or fragment, S. cerevisiae, UniProt P32797 344-495, looked up)", "chain": "KAISYEQLSLASVGSVERLEGKIVGMNPPQFASINEFKYSTLKLYFTQLLPNVPDKVLVPGVNCIEIVIPTRERICELFGVLNCQSDKISDILLLEKPDRISVEVERILWDNDKTASPGMAVWSLKNISTDTQAQAQVQVPAQSSASIDPSR"}}, "key": {"[1]": {"molecular_target": "Cdc13 OB2 domain L401A (S. cerevisiae) (UniProt P32797)", "assay": "cross-linking"}, "[2]": {"molecular_target": "Cdc13 OB2 domain P371S (cdc13-1 mutation) (S. cerevisiae) (UniProt P32797)", "assay": "cross-linking"}, "[3]": {"molecular_target": "Cdc13 OB2 domain Y388A (S. cerevisiae) (UniProt P32797)", "assay": "cross-linking"}, "[4]": {"molecular_target": "T1, Cdc13 construct consisting of residues 344-924 (domains OB2-DBD-OB4) (S. cerevisiae, UniProt P32797 344-924)", "T1 sequence (looked up)": "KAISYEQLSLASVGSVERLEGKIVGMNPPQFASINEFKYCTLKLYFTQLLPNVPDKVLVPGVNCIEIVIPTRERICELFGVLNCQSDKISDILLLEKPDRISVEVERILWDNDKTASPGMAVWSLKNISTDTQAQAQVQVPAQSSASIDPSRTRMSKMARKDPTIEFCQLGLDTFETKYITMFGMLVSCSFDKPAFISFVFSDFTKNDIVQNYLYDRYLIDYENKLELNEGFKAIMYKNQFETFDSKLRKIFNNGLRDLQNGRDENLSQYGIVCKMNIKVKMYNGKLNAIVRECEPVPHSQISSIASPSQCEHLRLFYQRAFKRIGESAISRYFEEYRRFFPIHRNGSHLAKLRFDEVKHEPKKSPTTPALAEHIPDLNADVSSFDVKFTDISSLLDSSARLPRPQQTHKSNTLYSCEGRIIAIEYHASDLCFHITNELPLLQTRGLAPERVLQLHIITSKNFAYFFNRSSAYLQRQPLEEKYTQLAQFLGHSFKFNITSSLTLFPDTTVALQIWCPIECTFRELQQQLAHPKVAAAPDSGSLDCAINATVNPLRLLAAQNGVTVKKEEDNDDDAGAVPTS", "assay": "ITC"}, "cross-linking": {"molecular_target": "the molecule itself", "assay": "cross-linking"}}, "data": [{"molecule": "Cdc13 OB2 domain L401A (from UniProt P32797 344-495) (domain or fragment)", "values": [{"measurement": "percent reduction of OB2 dimerization (cross-linking)", "setting": "[1]", "result": 50, "unit": "%"}]}, {"molecule": "Cdc13 OB2 domain P371S (cdc13-1 mutation) (from UniProt P32797 344-495) (domain or fragment)", "values": [{"measurement": "percent reduction of OB2 dimerization (cross-linking)", "setting": "[2]", "result": 78, "unit": "%"}]}, {"molecule": "Cdc13 OB2 domain Y388A (from UniProt P32797 344-495) (domain or fragment)", "values": [{"measurement": "percent reduction of OB2 dimerization (cross-linking)", "setting": "[3]", "result": 70, "unit": "%"}]}, {"molecule": "B1", "values": [{"measurement": "Kd", "setting": "[4]", "result": 6.4, "unit": "µM"}]}, {"molecule": "B2", "values": [{"measurement": "stoichiometry N", "setting": "cross-linking", "result": 2}]}, {"molecule": "B3", "values": [{"measurement": "binding result", "setting": "cross-linking", "result": "binds"}]}]}
